Data: paper PMC5861432

T1: IRF3(6D) (human, UniProt Q14653 1-427, S386D;S396D;S398D;S402D;T404D;S405D)
T1 sequence: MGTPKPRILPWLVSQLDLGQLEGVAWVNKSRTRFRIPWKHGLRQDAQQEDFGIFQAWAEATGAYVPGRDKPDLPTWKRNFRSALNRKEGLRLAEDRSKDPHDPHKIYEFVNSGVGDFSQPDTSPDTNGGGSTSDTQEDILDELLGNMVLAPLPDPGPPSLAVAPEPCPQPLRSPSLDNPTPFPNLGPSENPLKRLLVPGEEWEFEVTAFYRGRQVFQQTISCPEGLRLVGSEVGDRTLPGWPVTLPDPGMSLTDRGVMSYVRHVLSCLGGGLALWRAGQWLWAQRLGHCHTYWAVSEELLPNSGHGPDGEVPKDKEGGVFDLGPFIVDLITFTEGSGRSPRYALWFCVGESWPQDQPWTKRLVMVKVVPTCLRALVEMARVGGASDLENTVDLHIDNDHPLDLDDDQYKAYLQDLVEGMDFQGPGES


Assays:
[1] = molecular target: T1, IRF3(6D); test: EMSA
[2] = molecular target: T1, IRF3(6D); test: PBM
[3] = molecular target: IRF5(4D) (human, UniProt Q13568-2 1-514, S451D;S453D;S456D;S462D); test: PBM

Binder | binding result [1] | binding result [2] | binding result [3]
proximal dimer (2-bp spacer) (dsDNA) DNA 1: GCACCGCTAACCGAAACCGAAACTGTGC DNA 2: GCACAGTTTCGGTTTCGGTTAGCGGTGC | binds |  | 
C-2 PBM probe (dsDNA) DNA 1: GCCTAGCACTAACCGAAACCGAAACCTAAGTGCTAGGTCTTGATTCGCTTGACGCTGCTG DNA 2: CAGCAGCGTCAAGCGAATCAAGACCTAGCACTTAGGTTTCGGTTTCGGTTAGTGCTAGGC |  | binds | binds
